B1: ELF3 (parent)
chain: RLVYKFGKNSSGWKEEEVLQSRN

Variants of: B1
Test: protein stability index of a GFP-peptide fusion (GPS, HEK-293T) (PSI 1-6); higher = more stable
Conditions: c terminus: native
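Also: lentivirally expressed fusions sorted by FACS into six bins by GFP to DsRed ratio, PSI derived from sequencing read proportions per bin multiplied by bin number.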

Row | Variant | protein stability index
1 | RLVYKFGKNSSGWKCEEVLQSRN [E15C] | 2.49
2 | RLVYKFGKNSSGWKFEEVLQSRN [E15F] | 3
3 | RLVYKFGKNSSGWKQEEVLQSRN [E15Q] | 1.76
4 | RLVYKFGKNSSGWKGEEVLQSRN [E15G] | 1.76
5 | RLVYKFGKNSSGWKVEEVLQSRN [E15V] | 2.49
6 | RLVYKFGKNSSGWKAEEVLQSRN [E15A] | 1.43
7 | RLVYKFGKNSSGWKHEEVLQSRN [E15H] | 2.81
8 | RLVYKFGKNSSGWKKEEVLQSRN [E15K] | 3.27
9 | RLVYKFGKNSSGWKDEEVLQSRN [E15D] | 1.9
10 | RLVYKFGKNSSGWKIEEVLQSRN [E15I] | 1.55
11 | RLVYKFGKNSSGWKWEEVLQSRN [E15W] | 1.86
12 | RLVYKFGKNSSGWKNEEVLQSRN [E15N] | 1.94
13 | RLVYKFGKNSSSWKEEEVLQSRN [G12S] | 2.5
14 | RLVYKFGKNSSNWKEEEVLQSRN [G12N] | 1.98
15 | RLVYKFGKNSSTWKEEEVLQSRN [G12T] | 1.87
16 | RLVYKFGKNSSQWKEEEVLQSRN [G12Q] | 1.95
17 | RLVYKFGKNSSWWKEEEVLQSRN [G12W] | 1.88
18 | RLVYKFGKNSSPWKEEEVLQSRN [G12P] | 2.46
19 | RLVYKFGKNSSYWKEEEVLQSRN [G12Y] | 2.57
20 | RLVYKFGKNSSVWKEEEVLQSRN [G12V] | 1.79
21 | RLVYKFGKNSSGWKENEVLQSRN [E16N] | 2.51
22 | RLVYKFGKNSSGWKEYEVLQSRN [E16Y] | 2.91
23 | RLVYKFGKNSSGWKEHEVLQSRN [E16H] | 1.25
24 | RLVYKFGKNSSGWKEKEVLQSRN [E16K] | 2.46
25 | RLVYKFGKNSSGWKEVEVLQSRN [E16V] | 1.04

Row | Variant | protein stability index
26 | RLVYKFGKNSSGWKECEVLQSRN [E16C] | 1.94
27 | RLVYKFGKNSSGWKEDEVLQSRN [E16D] | 2.15
28 | RLVYKFGKNSSGWKEGEVLQSRN [E16G] | 1.5
29 | RLVYKFGKNSSGWKELEVLQSRN [E16L] | 3.56
30 | RLVYKFGKNSSGWKEQEVLQSRN [E16Q] | 1.25
31 | RLVYKFGKNSSGWKEIEVLQSRN [E16I] | 3.06
32 | RLVYKFGKNSSGWKEFEVLQSRN [E16F] | 3.9
33 | RLVYKFGKNSSGWKEEERLQSRN [V18R] | 2.29
34 | RLVYKFGKNSSGWKEEEFLQSRN [V18F] | 1.73
35 | RLVYKFGKNSSGWKEEESLQSRN [V18S] | 2.68
36 | RLVYKFGKNSSGWKEEEDLQSRN [V18D] | 3.45
37 | RLVYKFGKNSSGWKEEEILQSRN [V18I] | 2.32
38 | RLVYKFGKNSSGWKEEENLQSRN [V18N] | 2.59
39 | RLVYKFGKNSSGWKEEEHLQSRN [V18H] | 3.01
40 | RLVYKFGKNSSGWKEEECLQSRN [V18C] | 2.44
41 | RLVYKFGKNSSGWKEEETLQSRN [V18T] | 2.16
42 | RLVYKFGKNSSGWKEEEKLQSRN [V18K] | 2.94
43 | RLVYKFGKNSSGWKEEEALQSRN [V18A] | 2.49
44 | RLVYKFGKNSSGWKEEEGLQSRN [V18G] | 2.9
45 | RLVYKFGKNSSGWKEEELLQSRN [V18L] | 2.08
46 | RLVYKFGKNSSGWKEEEYLQSRN [V18Y] | 1.25
47 | RLVYKFGKNSSGWKEEEPLQSRN [V18P] | 2.81
48 | RLVYKFGKNSSGWKEEEELQSRN [V18E] | 3.17
49 | RLVYKFGKNSSGWKEEEQLQSRN [V18Q] | 2.35
50 | RLVYKFGKNSSGWKEEEWLQSRN [V18W] | 1.62

Row | Variant | protein stability index
51 | RLVYKFGKNSSGWKEEEMLQSRN [V18M] | 1.84
52 | RLVYKFGKNSSGWKEEEVLISRN [Q20I] | 1.71
53 | RLVYKFGKNSSGWKEEEVLNSRN [Q20N] | 3.32
54 | RLVYKFGKNSSGWKEEEVLASRN [Q20A] | 1.89
55 | RLVYKFGKNSSGWKEEEVLYSRN [Q20Y] | 1.79
56 | RLVYKFGKNSSGWKEEEVLWSRN [Q20W] | 1.67
57 | RLVYKFGKNSSGWKEEEVLDSRN [Q20D] | 3.28
58 | RLVYKFGKNSSGWKEEEVLGSRN [Q20G] | 3.4
59 | RLVYKFGKNSSGWKEEEVLLSRN [Q20L] | 2.19
60 | RLVYKFGKNSSGWKEEEVLSSRN [Q20S] | 2.4
61 | RLVYKFGKNSSGWKEEEVLTSRN [Q20T] | 1.58
62 | RLVYKFGKNSSGWKEEEVLMSRN [Q20M] | 2.06
63 | RLVYKFGKNSSGWKEEEVLKSRN [Q20K] | 1.25
64 | RLVYKFGKNSSGWKEEEVLESRN [Q20E] | 3.52
65 | RLVYKFGKNSSGWKEEEVLCSRN [Q20C] | 2.22
66 | RLVYKFGKNSSGWKEEEVLHSRN [Q20H] | 1.76
67 | RLVYKFGKNSSGWKEEEVLPSRN [Q20P] | 2.38
68 | RLVYKFGKNSSGWKEEEVLVSRN [Q20V] | 1.71
69 | RLVYKFGKNSSGGKEEEVLQSRN [W13G] | 4.27
70 | RLVYKFGKNSSGYKEEEVLQSRN [W13Y] | 2.96
71 | RLVYKFGKNSSGQKEEEVLQSRN [W13Q] | 3.29
72 | RLVYKFGKNSSGNKEEEVLQSRN [W13N] | 3.67
73 | RLVYKFGKNSSGHKEEEVLQSRN [W13H] | 4.28
74 | RLVYKFGKNSSGTKEEEVLQSRN [W13T] | 4.2
75 | RLVYKFGKNSSGDKEEEVLQSRN [W13D] | 4.86

Row | Variant | protein stability index
76 | RLVYKFGKNSSGPKEEEVLQSRN [W13P] | 4.45
77 | RLVYKFGKNSSGEKEEEVLQSRN [W13E] | 4.85
78 | RLVYKFGKNSSGSKEEEVLQSRN [W13S] | 3.78
79 | RLVYKFGKNSSGIKEEEVLQSRN [W13I] | 3.91
80 | RLVYKFGKNSSGCKEEEVLQSRN [W13C] | 4.09
81 | RLVYKFGKNSSGRKEEEVLQSRN [W13R] | 3.74
82 | RLVYKFGKNSSGKKEEEVLQSRN [W13K] | 3.85
83 | RLVYKFGKNSSGFKEEEVLQSRN [W13F] | 3.03
84 | RLVYKFGKNSSGVKEEEVLQSRN [W13V] | 3
85 | RLVYKFGKNSSGAKEEEVLQSRN [W13A] | 4.73
86 | RLVYKFGKNSSGLKEEEVLQSRN [W13L] | 4.02
87 | RLVYKFGKNSSGMKEEEVLQSRN [W13M] | 3.91
88 | RLVYKFGKNSSGWKEEEVLQSTN [R22T] | 3.51
89 | RLVYKFGKNSSGWKEEEVLQSIN [R22I] | 3.42
90 | RLVYKFGKNSSGWKEEEVLQSMN [R22M] | 2.72
91 | RLVYKFGKNSSGWKEEEVLQSLN [R22L] | 2.56
92 | RLVYKFGKNSSGWKEEEVLQSPN [R22P] | 3.62
93 | RLVYKFGKNSSGWKEEEVLQSHN [R22H] | 3.53
94 | RLVYKFGKNSSGWKEEEVLQSNN [R22N] | 3.96
95 | RLVYKFGKNSSGWKEEEVLQSDN [R22D] | 4.7
96 | RLVYKFGKNSSGWKEEEVLQSYN [R22Y] | 2.06
97 | RLVYKFGKNSSGWKEEEVLQSCN [R22C] | 2.35

From the supplement of paper PMC10567573
